Article PMC6856716
Read-outs that look alike come from different tables or passages of the source.

How the values were obtained:
[1] = target: Actin (rabbit skeletal muscle alpha actin), polymerized (F-actin) (rabbit) (UniProt P68135); assay: co-sedimentation
[2] = target: Actin (rabbit skeletal muscle alpha actin), polymerized (F-actin) (rabbit) (UniProt P68135); assay: co-sedimentation; remark: listed apart in the source

co-sedimented talin fragment relative to talin-FL (relative to talin-FL) [1] | co-sedimented talin fragment relative to talin-FL (relative to talin-FL) [2] | Substance
0.68 | – | talin N-R12 (C-terminal truncation), P26039 1-2294
1.1 | 1.3 | talin R1-C (truncation lacking the FERM domain), P26039 482-2541
1.3 | 1.1 | talin N-R11 (C-terminal truncation lacking R12 and the C-terminus), P26039 1-2141
